Assay results as given in patent US20210322559A1.
Non-standard residues stand in square brackets, D forms with d. No end group written: not given here. Hyp = O=C(O)[C@@H]1C[C@@H](O)CN1

B1: 9r, (PGOGPGPOPOGOGPOPGOOPGGOOPPG-G3)2KG3K^CF (peptide)
chain: PG[Hyp]GPGP[Hyp]P[Hyp]G[Hyp]GP[Hyp]PG[Hyp][Hyp]PGG[Hyp][Hyp]PPGGGGKGGGGPP[Hyp][Hyp]GGP[Hyp][Hyp]GP[Hyp]PG[Hyp]G[Hyp]P[Hyp]PGPG[Hyp]GP
modifications: also: branched dimer: two arms grown from both amines of Lys31, residues 32-61 are the second arm written reversed, G3K with carboxyfluorescein on the C-terminal Lys attached at branch point Lys31
B2: 6r, (PGOPPOGGPOOGOGOPGP-G3)2KG3K^CF (peptide)
chain: PG[Hyp]PP[Hyp]GGP[Hyp][Hyp]G[Hyp]G[Hyp]PGPGGGKGGGPGP[Hyp]G[Hyp]G[Hyp][Hyp]PGG[Hyp]PP[Hyp]GP
modifications: also: branched dimer: two arms grown from both amines of Lys22, residues 23-43 are the second arm written reversed, G3K with carboxyfluorescein on the C-terminal Lys attached at branch point Lys22
B3: 5r, (PPOGGPOOGOGOPGP-G3)2KG3K^CF (peptide)
chain: PP[Hyp]GGP[Hyp][Hyp]G[Hyp]G[Hyp]PGPGGGKGGGPGP[Hyp]G[Hyp]G[Hyp][Hyp]PGG[Hyp]PP
modifications: also: branched dimer: two arms grown from both amines of Lys19, residues 20-37 are the second arm written reversed, G3K with carboxyfluorescein on the C-terminal Lys attached at branch point Lys19

biological target: porcine gelatin (denatured collagen) (porcine); assay: fluorescence in crosslinked gelatin film after 6 washes at 4 °C (FIG. 6A)

Percent removal after washes at 4 °C, > 95%:
B1, B2, B3

biological target: porcine gelatin (denatured collagen) (porcine); assay: fluorescence; CHP 15 µM premixed into 10% porcine gelatin, 5 washes at 4 °C (FIG. 6B)

Percent removal after washes at 4 °C, > 95%:
B1, B2, B3
